The Immune Epitope Database (IEDB)

The sequences below were run against HLA-A*02:01 (assay: IEDB peptide-MHC binding, purified MHC/competitive/radioactivity; ≥ and ≤ were set here for values at or beyond the usual limits of such assays). Conditions: source organism: Bordetella pertussis.

Sequence	IC50
ALMLACTGL	10.8 µM
LAMPWTFHA	1.17 µM
LLNAGGTLL	2.57 µM
VLAPRLYLT	7.98 µM
YQTYTEWSV	0.384 µM

Each sequence was assayed against HLA-B*07:02 in the same assay as above. Conditions: source organism: Bordetella pertussis.

Sequence	IC50
APQAAPLSI	2.21 µM
SPRRARRAL	0.0138 µM

These sequences were tested against HLA-B*35:01 in the same assay as above. Conditions: source organism: Bordetella pertussis.

Sequence	IC50
AAGFDPEVQ	32.7 µM
LAAIASAAH	49.8 µM
LANDGTIVI	5.87 µM
LAPTVGVAF	7.6 µM

Each sequence was assayed against HLA-B*44:03 in the same assay as above. Conditions: source organism: Bordetella pertussis.

Sequence	IC50
IESKISQSV	39.9 µM
QQVQVLQRQ	15.8 µM

These sequences were tested against HLA-B*53:01 in the same assay as above. Conditions: source organism: Bordetella pertussis.

Sequence	IC50
APQAAPLSI	42.4 µM
GLYQTYTEW	69.9 µM
LAWALMLAC	6.64 µM
TFTGKVTNG	39.9 µM
TPFDIKLKE	34.7 µM
TPFIIKLKD	≥ 78.2 µM
YYDYEDATF	69.9 µM

The sequences below were run against HLA-B*57:01 in the same assay as above. Conditions: source organism: Bordetella pertussis.

Sequence	IC50
GLYQTYTEW	41.4 µM
ISVRVHVSK	2.74 µM
ITNKRAALI	40 µM
